Assay results published in article PMC4735526 (Nature Communications, 2016).
Residue numbers refer to the chain shown, from its start.

B1: T-STAR STAR domain (amino acids 1-183) (domain or fragment, human, UniProt O75525 1-183, looked up)
chain: MEEKYLPELMAEKDSLDPSFTHALRLVNQEIEKFQKGEGKDEEKYIDVVINKNMKLGQKVLIPVKQFPKFNFVGKLLGPRGNSLKRLQEETLTKMSILGKGSMRDKAKEEELRKSGEAKYFHLNDDLHVLIEVFAPPAEAYARMGHALEEIKKFLIPDYNDEIRQAQLQELTYLNGGSENADV
notes: Crystallised with AUUAAA RNA; QUA2 region not seen in the electron density; also called SLM2; source: E. coli Rosetta BL21 DE3, purified (Ni-NTA, TEV cleavage, size-exclusion chromatography); not shown: His tag (inferred from the Ni-NTA purification)
B2: T-STAR QUA1-KH domain (domain or fragment, human)
chain: MEEKYLPELMAEKDSLDPSFTHALRLVNQEIEKFQKGEGKDEEKYIDVVINKNMKLGQKVLIPVKQFPKFNFVGKLLGPRGNSLKRLQEETLTKMSILGKGSMRDKAKEEELRKSGEAKYFHLNDDLHVLIEVFAPPAEAYARMGHALEEIKKFLIPDYN
notes: T-STAR/SLM2, human, QUA1 and KH domains with the linker between them; by the limits of the STAR (1-183) and KH (50-160) constructs they may be 1-160 (surmised); source: E. coli Rosetta BL21 DE3, purified (Ni-NTA, TEV cleavage, size-exclusion chromatography); not shown: His tag (inferred from the Ni-NTA purification)
B3: Sam68 STAR domain (amino acids 97-283) (domain or fragment, human, UniProt Q07666 97-283, looked up)
chain: MEPENKYLPELMAEKDSLDPSFTHAMQLLTAEIEKIQKGDSKKDDEENYLDLFSHKNMKLKERVLIPVKQYPKFNFVGKILGPQGNTIKRLQEETGAKISVLGKGSMRDKAKEEELRKGGDPKYAHLNMDLHVFIEVFGPPCEAYALMAHAMEEVKKFLVPDMMDDICQEQFLELSYLNGVPEPSRG
notes: Sam68 (Src-associated protein in mitosis of 68 kDa), human, STAR domain (QUA1, KH, QUA2), residues 97-283; also called Src-associated protein in mitosis of 68 kDa; source: E. coli Rosetta BL21 DE3, purified (Ni-NTA, TEV cleavage, size-exclusion chromatography); not shown: His tag (inferred from the Ni-NTA purification)
B4: SRE-4 (ssRNA)
RNA: UUUGGGGGUUCAAUAAAAAUUUUCACUAUCCUAUUAACAGUUCCGCCGCUCC
B5: T-STAR KH domain (amino acids 50-160) (domain or fragment, human, UniProt O75525 50-160, looked up)
chain: INKNMKLGQKVLIPVKQFPKFNFVGKLLGPRGNSLKRLQEETLTKMSILGKGSMRDKAKEEELRKSGEAKYFHLNDDLHVLIEVFAPPAEAYARMGHALEEIKKFLIPDYN
notes: T-STAR/SLM2, human, KH domain, residues 50-160; The free KH structure (5EL3) was phased from a SeMet-labelled KH domain; the complex with AAAUAA is 5ELS; source: E. coli Rosetta BL21 DE3, purified (Ni-NTA, TEV cleavage, size-exclusion chromatography); not shown: His tag (inferred from the Ni-NTA purification)
B6: T-STAR KH-QUA2 domain (amino acids 50-183) (domain or fragment, human, UniProt O75525 50-183, looked up)
chain: INKNMKLGQKVLIPVKQFPKFNFVGKLLGPRGNSLKRLQEETLTKMSILGKGSMRDKAKEEELRKSGEAKYFHLNDDLHVLIEVFAPPAEAYARMGHALEEIKKFLIPDYNDEIRQAQLQELTYLNGGSENADV
notes: T-STAR/SLM2, human, KH and QUA2 domains, residues 50-183; Crystallised with AAUAAU RNA; QUA2 not seen in the electron density; source: E. coli Rosetta BL21 DE3, purified (Ni-NTA, TEV cleavage, size-exclusion chromatography); not shown: His tag (inferred from the Ni-NTA purification)

Target: Sam68 QUA1-KH domain (human)
Experiment: SAXS; 25 °C, 1-20 mg/ml protein in the NMR buffers, in the absence and presence of AAAUAA RNA (10 mg/ml protein, protein/RNA 1:1); molecular weights from Porod volumes

Molecule	stoichiometry N
Sam68 QUA1-KH domain (domain or fragment)	2

Target: T1, Sam68 STAR (UniProt Q07666 97-283)
Experiment: NMR chemical shift perturbation; FP: 10 mM Tris pH 7, 100 mM NaCl, 0.1% beta-mercaptoethanol, 0.2 uM fluorescein-RNA, protein 0-200 uM, temperature not stated; NMR 303 K: Sam68 in 10 mM Tris pH

Molecule	binding result
AUUAAA (ssRNA)	binds

Target: the molecule itself
Experiment: SAXS; 25 °C, 1-20 mg/ml protein in the NMR buffers, in the absence and presence of AAAUAA RNA (10 mg/ml protein, protein/RNA 1:1); molecular weights from Porod volumes

Molecule	stoichiometry N
B1	2
B2	2
B3	2

Target: T2, T-STAR KH-QUA2 (UniProt O75525 50-183)
T2 sequence: B6 chain
Experiment: X-ray crystallography; FP: 10 mM Tris pH 7, 100 mM NaCl, 0.1% beta-mercaptoethanol, 0.2 uM fluorescein-RNA, protein 0-200 uM, temperature not stated; NMR 303 K: Sam68 in 10 mM Tris pH

Molecule	binding result
AAUAAU (ssRNA)	binds

Target: T3, T-STAR STAR (UniProt O75525 1-183)
T3 sequence: B1 chain
Experiment: as above

Molecule	binding result
AUUAAA (ssRNA)	binds

Target: T4, T-STAR KH (UniProt O75525 50-160)
T4 sequence: B5 chain
Experiment: as above

Molecule	binding result
AAAUAA (ssRNA)	binds

Target: T5, T-STAR QUA1-KH (UniProt O75525 1-160)
T5 sequence: B2 chain
Experiment: as above

Molecule	binding result
UAAU (ssRNA)	binds

Target: T1, Sam68 STAR
Experiment: fluorescence polarization; 10 mM Tris pH 7, 100 mM NaCl, 0.1% beta-mercaptoethanol; 0.2 uM fluorescein-labelled RNA; protein 0-200 uM; temperature not stated

Molecule	Kd [µM]
B4	65.7
CCCAAUUAACUAACUAACUAACUUUAAAA (ssRNA) [Nrxn2]	3.7
CUGGGUGACACACUAGCUAUAGCAUUAAAAGACCGAGCAAGU (ssRNA) [G8.5]	36.1
UCCGGAUUGGCCUAAAUAGAUGCGCGAUAAUAAUAGAGUA (ssRNA) [G7.1]	8.2

Target: T6, T-STAR STAR Y141E (UniProt O75525 1-183, Y141E)
T6 sequence: B1 chain with Y141E
Experiment: as above

Molecule	Kd [µM]
UAAACCC (ssRNA)	6.8
UAAACCCCCUAAA (ssRNA) [UAAA-C5-UAAA]	5.1
UAAACCCCCCCCCCCCCCCUAAA (ssRNA) [UAAA-C15-UAAA]	4.7
UAAACCCCCCCCCCUAAA (ssRNA) [UAAA-C10-UAAA]	4.9

Target: T3, T-STAR STAR
Experiment: as above

Molecule	Kd [µM]
UAAACCC (ssRNA)	7
B4	8.5
UAAACCCCCUAAA (ssRNA) [UAAA-C5-UAAA]	5.9
CCCAAUUAACUAACUAACUAACUUUAAAA (ssRNA) [Nrxn2]	1.1
UAAACCCCCCCCCCCCCCCUAAA (ssRNA) [UAAA-C15-UAAA]	6.7
UAAACCCCCCCCCCUAAA (ssRNA) [UAAA-C10-UAAA]	7
CUGGGUGACACACUAGCUAUAGCAUUAAAAGACCGAGCAAGU (ssRNA) [G8.5]	11.7
UCCGGAUUGGCCUAAAUAGAUGCGCGAUAAUAAUAGAGUA (ssRNA) [G7.1]	5.4

Target: T5, T-STAR QUA1-KH
Experiment: as above

Molecule	Kd [µM]
CUAAA (ssRNA)	18
UAAACCC (ssRNA)	7.9
AUAAU (ssRNA)	45
B4	9.4
UAAACCCCCUAAA (ssRNA) [UAAA-C5-UAAA]	5.5
UUAAA (ssRNA)	16
CCCAAUUAACUAACUAACUAACUUUAAAA (ssRNA) [Nrxn2]	1.7
UAAACCCCCCCCCCCCCCCUAAA (ssRNA) [UAAA-C15-UAAA]	6.8
AAAAA (ssRNA)	6
UAAACCCCCCCCCCUAAA (ssRNA) [UAAA-C10-UAAA]	8.6
AUAAA (ssRNA)	37
CUGGGUGACACACUAGCUAUAGCAUUAAAAGACCGAGCAAGU (ssRNA) [G8.5]	8.1
UCCGGAUUGGCCUAAAUAGAUGCGCGAUAAUAAUAGAGUA (ssRNA) [G7.1]	4.5
AUAAC (ssRNA)	47
ACAAA (ssRNA)	55

Target: Sam68 QUA1-KH Y241E (UniProt Q07666 97-260, Y241E)
Experiment: as above

Molecule	Kd [µM]
UAAACCC (ssRNA)	27.1
UAAACCCCCUAAA (ssRNA) [UAAA-C5-UAAA]	4.6
UAAACCCCCCCCCCCCCCCUAAA (ssRNA) [UAAA-C15-UAAA]	4
UAAACCCCCCCCCCUAAA (ssRNA) [UAAA-C10-UAAA]	3.9

Target: T7, T-STAR QUA1-KH Y141E (UniProt O75525 1-160, Y141E)
T7 sequence: B2 chain with Y141E
Experiment: as above

Molecule	Kd [µM]
UAAACCC (ssRNA)	10.9
UAAACCCCCUAAA (ssRNA) [UAAA-C5-UAAA]	5.3
UAAACCCCCCCCCCCCCCCUAAA (ssRNA) [UAAA-C15-UAAA]	4.7
UAAACCCCCCCCCCUAAA (ssRNA) [UAAA-C10-UAAA]	4.4

Target: Sam68 QUA1-KH (UniProt Q07666 97-260)
Experiment: as above

Molecule	Kd [µM]
CUAAA (ssRNA)	34
UAAACCC (ssRNA)	50
AUAAU (ssRNA)	49
B4	19.1
UAAACCCCCUAAA (ssRNA) [UAAA-C5-UAAA]	42.7
UUAAA (ssRNA)	50
CCCAAUUAACUAACUAACUAACUUUAAAA (ssRNA) [Nrxn2]	2.2
UAAACCCCCCCCCCCCCCCUAAA (ssRNA) [UAAA-C15-UAAA]	26.3
AAAAA (ssRNA)	13
UAAACCCCCCCCCCUAAA (ssRNA) [UAAA-C10-UAAA]	37.3
AUAAA (ssRNA)	55
CUGGGUGACACACUAGCUAUAGCAUUAAAAGACCGAGCAAGU (ssRNA) [G8.5]	10.3
UCCGGAUUGGCCUAAAUAGAUGCGCGAUAAUAAUAGAGUA (ssRNA) [G7.1]	4.3

Target: the molecule itself
Experiment: crystal structure; T-STAR constructs in complex with short RNAs (protein/RNA 1:2), sitting drop vapour diffusion at 4 °C; protein in 10 mM Tris pH 7.0, 50 mM NaCl

Molecule	binding result
B5	binds
B6	binds
